# Laboratory results from patent US20240026407A1, “MODIFICATION OF SAPONINS” (GLAXOSMITHKLINE BIOLOGICALS SA, priority 2020, published 2024).
# B1: 41 (protein, listed as Ardenticatena maritima)
# chain: MKGARMQDRVETLLQSLTLDEKIKLLAGADTWHTHAIPRLGIPALKVTDGPNGVRGTQKDTRSQTSASFPVGTAMGATWNPDLVREIGEALAEEVKTKGAHVLLGPTVNMHRHPLAGRNFECFAEDPYLMARMAVAYIQGVQSQGVGACIKHYVCNDQEFERFSISAEVDERTLREIYLPPFKAAVQEAGVWTLMTAYNRVNGVYASENSHLFDILKDEWGFDGLALSDWYGTYSDRVPLERLDLEMPGPGRWMAPEKVRAALERGEITEADIDDKVRRLLRTLERVGAFEDSAPKEERSVDNPRHHEIIRRAGREAIVLLKNEDNVLPLDASRFPRLAVIGRPATEVSFQGGGSSEVNPHYVVQPLDAMRERYGEAFQMTYALGPAFYRNFPLLDTRGLRAEDGTPGKVTVRQYDNTELEGEPSKVFLAEGTQLAWFGEQISEFDLRSFSLTMSGTWTPPVSGTYTFSMATVGRGRFEFDGKTLLDWWEYIPEEQPQNFDGMVSVPWRQEEVTLELEAGREYPFRVDFAVVPGGRWRTIRLGVLPPQPADPIGEAVALAREADAAVVFVGLTPEWESEGSDRESMDLPGEQNELVARVAEANPNTIVIVNAGSPVHMPWLDKVKAVLQVWYLGQEMGNAITDVLFGEADPGGRLPTTFPKRLQDSPAYINYPGENGRVYYGERLYVGYRYYDKKEIEPLFPFGHGLSYTTFSYDALELAADQVRVGEGVDVHVTITNQGARRGQEVVQVYLHDVESSLPRPPKELKGFAKVTLEPGETRTVTIHLRPDAFAFYDDKRGAWVVEPGAFEVLVGRSAADIRLRARLDIVDKTTEALEAGNVLAG
# B2: 32 (protein)
# chain: MSIRLTDKASVPAVVAEMTLEEKARLVTGEFPFTTAGIKRLGIPPMRPLDGHTGINMGQLRSDMASKTLANKSVDELGEMSGPAISGFGTVITNAKDPAKRAKMAPSIQKLVQEVLDKVDELMPDGMYPGCFPPGIMQGSTWNPEVIEKEGSAVGKEMDAYKVDVCLGPNVNIHRDPLNGRLFEGYSEDPYVTATLAPYYIRGMQAEGVAADAKHFAANNQETHRQEIDERIPLRALYEIYLPGFKAAVQQGKVKTLMSAYNKINGTACALNHWLLTDVLRGEWGFEGFVVSDWGAVYDQVDAINAGNDLEMPGPLTFDKIVAAVKDGRIDEKTLDQRVANYLNVLVELPVMKGRKNAHIDREYSRKAAYDVAAEGSILLKNEGALPLNEGAKISLIGEHAKDYIICGKGSAFIDTDQATNLYDCAVETLGADKVEYGDVSADSDAAIIVVSVDGQEGSDRADLLLAPGDDQMILDAAKKAHANGKKAIVILNVTGPVEMEGWLDQVDAVLCVWLPGMEGGRATLDILTGKVNPSGKLTLTFPKHYYDCPTYGNFPGDGDEVWYGEGIYVGYRYYDKKHVEPLYPFGYGLSYTTFELSDIAIDRDVMDMDKGETVNVSVKVTNTGKVAGKEVVQVYISDEVSTLSKPLKELKGFQKVALQPGESKVVTIAIGKDQLASYDPAAKAWGSEPGYYQALVGTSSRDIAGAVRFKAVGYNPFGYGVNCSIGKIMANPAVVEAMKKYIPAHLLSDESMSSELTYFPEAKLQKIWNEKFSLAFKDKSETEKQAILDAMCAEIAKIEVI
# modifications: uncultured Clostridium sp.
# B3: Variant R1: engineered rhamnosidase polypeptide, variant of Kribbella flavida rhamnosidase SEQ ID No. 1017 (protein)
# chain: MSFPAAPARLRFEHRTDPGPVLGIGTATPRLSWQVPTAPDDYRQAGYEVEIARGDAAPEQYTVDSADQVLVPWPGTPLAARESATVRVRVRGDGDWSQWSDPATVEAGLLSADDWTARFVSPRENAGHEAPAPLIGGVIDLPADIAQARLYATAHGIYEPTLNGTRVGDEQLAPGWTAYEQRLRYQTYDVTDLVAPGENRLELLVGNGWYRGRLGFHGGHSLYGDRLAVLAQLEVTTATGEVKVLASDGTWTTRETNVLADDLYDGQHVDLRRTLGEPGPVDVLDADLSLLVAPDGPPVRVTDVLPAKAVTTSPAGKTLVDFGQNVVGRLRLRVRGGAAGDEIVLRHAEVLEDGELGVRPLRTAKATDSFVLAGPDEVTLEPTLTFHGFRYAEITGVPDLRAEDVEAVVVGSDLRRTGWFESSHPLLDRFHENVVWGMRGNFLDVPTDCPQRDERLGWTGDIQVFSPTASFLFDTAGFLTNWLADLIAEQHKDGSVPFVVPDVLRQPGPATAAWGDAATIVPWVLYERTGDAGLLARQLPSMRAWVDRMAGLAGDDLLWVGGFQFGDWLDPTAPPDDPFRAKADPDVLATAHLARSAEVVALAAEVVGAGELAREYAELAARVRQAFAAEYTTGSGRVLSDAATNYALALQWALLPTEAQRKRAGERLADLVRTAGFRISTGFVGTPLMADALADSGHPDLAYRLLLETGCPSWLYAVTMDATTVWERWDSMLPDGSINPGQMTSFNHYALGAVADWMHRRVAGLAPGDPGYRRIVVDPLFTAHLTKASARHLTPYGEAAVAWSRSGGRVRLEVTVPVGARARVAVPGESAPVEVGHGTHEWTADDVYGETPPLPADATIRQLIDHEPSWTTLAAAATRTGIVADDAELAGRLERYLDHPATELVDAVSPRGFSPSAEALQAELDSVLGR
# modifications: Seq ID No. 1017 with mutation K219G
# Tests used:
# Assay type in all cases: biochemical, Quillaja saponaria
# [1] = Experiment 4-2: screening of glucosidases for deglycosylation with purified QS-18 (1 mg/ml) at pH 6 and 30 deg C; conditions: pH 6, 30 degC, 18 hrs, clarified lysate, LCMS/MS
# Experimental: Lysates were prepared in an identical manner to Experiment 4-1 above, except the lysis buffer was prepared in 100 mM potassium phosphate buffer pH 6. QS-18 solution was prepared by dissolving QS-18 in 100 mM potassium phosphate buffer pH 6 (2 mg/mL).
# 12 uL clarified lysate was transferred into fresh 96 well PCR plates. 12 uL QS-18 solution was added (1 mg/ml final concentration), plates sealed and incubated overnight (30° C.) for 18 hrs. After quenching with 25 uL MeCN and shaking for 10 mins (RT), samples were analysed using the LC-MS/MS protocol described in Experiment 4-1 and enzyme activity determined in an analogous manner.
# [2] = Experiment 4-1: screening of glucosidases for deglycosylation with purified QS-18 (0.04 mg/ml) at pH 7.5 and room temperature; conditions: pH 7.5, room temperature, 20 h, clarified E. coli lysate, QS-18 2150 to QS-21 1988 by LCMS/MS
# Experimental: Nucleotide sequences were sub-cloned into pET24b+ for expression. 10 uL of E. coli cells (One Shot® BL21(DE3) chemically competent E. coli) were transferred to each well of a 96 well PCR plate (prechilled on ice). 10 uL autoclaved water was added to the DNA, resuspended by pipetting, and 1 uL of plasmid DNA (15-30 ng) was transferred to the competent cells. Immediately after addition, the resulting mixture was mixed by pipetting. Cells were heat shocked by placing the plate in a thermal cycler at 42° C. for 30 seconds then transferred directly to an ice bath for 2 min. 100 uL sterile Lysogeny Broth (LB) medium was added to each well containing transformed cells. The content of each plate was transferred into a 96-deep well plate pre-aliquoted with 400 uL LB and the plate was incubated at 37° C. with shaking and 85% humidity for 1 hour. After outgrowth, 500 uL of sterile LB containing 100 ug/mL kanamycin was added to the plates containing cells and plates incubated at 37° C. with shaking overnight (18 hours) with humidity control (85%).
# 1000 mLs of Overnight Express Media was supplemented with 1 mL kanamycin 50 mg/mL and 20 mL of 50% v/v glycerol added (50 ug/mL kanamycin final and 1% glycerol). 96-Well Assay Block 2 mL plates were aliquoted with 380 uL of media per well. Pre-inoculum (20 uL) from transformation plates was added. The plates were sealed appropriately and incubated at 37° C. at 300 with shaking for 2 h. After 2 h the temperature was lowered to 20° C. and incubation continued for 20 h.
# The liquid cultures were centrifuged for 10 minutes at 4° C. The supernatant was discarded, plates blotted on an absorbent material to remove residue and the plates frozen at −80° C.
# Lysis buffer was prepared according to the following protocol: • 1. Polymyxin B sulphate (0.5 mg/mL) was suspended in 100 mM potassium phosphate pH 7.5 • 2. The mixture was sonicated until polymyxin B sulphate had dissolved • 3. Lysozyme (1 mg/mL) and benzonase (0.1 uL/mL lysis buffer) were added
# 2 copies of each cell pellet plate were removed from −80 degC freezer and allowed to thaw. 200 uL of lysis buffer was added to each well of one copy of the cell pellet plates. Plates were shaken at room temperature for 10 mins. 190 uL of cell pellet/lysis buffer was transferred to a corresponding fresh cell pellet plate. These plates were incubated at room temperature with shaking for 2 hours. Lysate was clarified by centrifugation (10 min, 4 degC).
# QS-18 was obtained by analogous methods to Example 3, collecting a QS-18 containing phenyl fraction following phenyl treatment (presence of m/z corresponding to key components was confirmed by MS and the phenyl fraction then used without further treatment). QS-18 solution was prepared by diluting aqueous QS-18 (ca 1 mg/mL) with 100 mM potassium phosphate pH 7.5 to 0.2 mg/ml. 40 uL clarified lysate was transferred into fresh 96 well PCR plates. 10 uL QS-18 solution added to each well of lysate to a final concentration of 0.04 mg/ml. Incubated at room temperature with shaking for 20 h. Quenched with 50 uL MeCN and shaken at room temperature for 10 mins. Samples were analysed by LC-MS/MS using a Waters Acquity H class coupled to a Waters Xevo Tandem Quadrupole (TQD) Mass Spectrometer.
# Enzyme activity was calculated as: […]
# Candidate enzymes with % conversion >0.72%, i.e. >3 S.D. above negative control, were considered to be positive hits and are listed below in Table 7. Sample results are shown in FIG. 10 for a QS-21 standard, FIG. 11 for negative control and FIG. 12 for treatment with the glucosidase of SEQ ID No. 262.
# [3] = Example 10: derhamnosylation of saponins in crude bark extract (50%) using WT and engineered rhamnosidases R1 to R5; conditions: 7 h, 50% CBE, 35 degC; for % Right Peak: starting CBE 26; for % Left Peak: starting CBE 30; for % Middle Peak: starting CBE 44
# [4] = Example 9: screening of rhamnosidase variants for derhamnosylation of saponins in crude bark extract; conditions: R1 round: 20 deg C, 22 h, lysate 1.25% v/v, CBE 80% v/v, 100 mM Potassium phosphate pH 6
# Summary of the method: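 His-tagged Kribbella flavida rhamnosidase variants expressed in colonies; cell lysates added at the indicated % loading (1% = 2 ul lysate per 200 ul reaction) to pH 6 Quillaja saponaria aqueous bark extract (≥2.80 mg/ml QS-21) at 75% or 80% volume. Quenched with acidified MeCN, analysed by UV HPLC; activity as % conversion of the QS-17-family Left Peak.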
# [5] = rhamnosidase 2.5 mg/ml + glucosidase G5 0.5 mg/ml
# [6] = rhamnosidase 2.5 mg/ml, no glucosidase
molecule,measurement,setting,value
B1,Expt 4-2 % conv,[1],0.7%
same,Expt 4-1 % conv,[2],4.0%
B2,Expt 4-2 % conv,[1],0.6%
same,Expt 4-1 % conv,[2],2.2%
B3,% change in Left Peak,[3]; [5],−40%
same,% change in Middle Peak,[3]; [5],−96%
same,% change in Right Peak,[3]; [5],309%
same,Cumulative Fold improvement in primary enzyme loading × time,[3]; [5],2
same,Fold improvement in primary enzyme loading × time,[3]; [5],2.0
same,% Right Peak,[3]; [5],80%
same,% Left Peak,[3]; [5],18%
same,% Middle Peak,[3]; [5],2%
same,% change in Left Peak,[3]; [6],−35%
same,% change in Middle Peak,[3]; [6],17%
same,% change in Right Peak,[3]; [6],112%
same,Cumulative Fold improvement in primary enzyme loading × time,[3]; [6],2
same,Fold improvement in primary enzyme loading × time,[3]; [6],2.0
same,% Right Peak,[3]; [6],29%
same,% Left Peak,[3]; [6],19%
same,% Middle Peak,[3]; [6],51%
same,% conversion (Right peak/Left Peak) (−neg control),[4],2.74%
same,Cumulative FIOP from WT,[4]; estimate,1.7
same,Right Peak %,[4]; negative control 26.35,27.08%
same,Left Peak %,[4]; negative control 29.36,27.04%
same,Middle Peak %,[4]; negative control 44.30,45.89%
same,% conversion (Right peak/Left Peak),[4]; negative control 47.30,50.04%
same,FIOP (% area increase variant/pos control),[4]; positive control WT,1.7
